In patent US20080207488A1, “Method for Detecting Peptides Comprising a Cross-B Structure” (priority 2005, published 2008):
Each block holds one molecule with its values, some of them ahead of it.

Key:
[1] = Thioflavin T fluorescence; assay type: physicochemical
Procedure: Fluorescence of ThT-protein/peptide adducts was measured as follows. […] Fluorescence was measured at 485 nm upon excitation at 435 nm. Background signals from buffer, buffer with ThT and protein/peptide solution without ThT were subtracted from corresponding measurements with protein solution incubated with ThT. […] Fluorescence was measured in triplicate on a Hitachi F-4500 fluorescence spectrophotometer (Ltd., Tokyo, Japan).
Formulated protein therapeutics were obtained from the local hospital pharmacy and were used as supplied by the manufacturers. […] Lyophilized therapeutics were dissolved according to the manufacturers recommendations. […] Enhancement in fluorescence of ThT and Congo red was measured with all formulated protein therapeutics. […]
To prepare structurally altered ovalbumin (OVA) with amyloid cross-β structure conformation, purified OVA (Sigma, A-7641, lot 071k7094) was heated to 85° C. […] Native OVA (nOVA) and heat-denatured OVA (dOVA) were tested in the ThT fluorescence assay and in the Plg-activation assay. In the fluorescence assay and in the Plg-activation assay, 25 and 100 μg ml^−1 nOVA and dOVA were tested, respectively. […] In the ThT-fluorescence assay 25 μg ml^−1 nMSA and alkyl-MSA were tested, and in the Plg-activation assay 100 μg ml^−1 was tested. The presence of aggregates or fibrils was analyzed using TEM. […]

Balb/c mice [2] = assay: Immunization of Balb/c mice with ovalbumin and amyloid-like ovalbumin; assay type: in vivo; conditions: without adjuvant
Procedure: Eight to ten weeks old female Balb/c mice are immunized with OVA according to two immunization regimes (Central Animal Laboratories, Utrecht University, The Netherlands). Pre-immune serum was collected prior to the immunizations. In one regime two groups of five mice were subcutaneously injected five consecutive days per week, for three consecutive weeks. Doses comprised 10 μg native OVA or heat-denatured OVA for each injection. Alternatively, according to the second protocol, three groups of five mice were injected once intraperitoneally with doses comprising 5 μg nOVA, 5 μg OVA or 5 μg native OVA mixed 1:1 with complete Freund's adjuvant (CFA). Each week, blood was taken. After three weeks, a second dose was given. Incomplete Freund's adjuvant (IFA) was used instead of CFA. Blood was taken after one week after the start of the immunization. Antibody titers in sera were determined and sera were analyzed for the presence of cross-β structure conformation specific antibodies. For this purpose, nOVA was coated onto wells of 96-wells ELISA plates and incubated with dilution series of sera. Sera of the groups of five mice were pooled prior to the analyses. Plates were washed and subsequently incubated with peroxidase-conjugated rabbit anti-mouse immunoglobulins (RAMPO, P0260, DAKOCytomation, Glostrup, Denmark). Plates were subsequently developed with tetramethylbenzidine (TMB) substrate. […]

[3] = target: T1, human fibronectin finger 4,5 (Fn F4,5) fragment (Homo sapiens, UniProt P02751); assay: ELISA, binding of fibronectin F4,5 to coated (mis)folded proteins; conditions: coated protein, FIG. 7D-H
T1 construct: human fibronectin finger 4,5 (Fn F4,5) fragment; made in house; host or cells: HEK293E cells, transient transfection, protein purified from the medium
T1 sequence (P02751 182-276 limits assumed): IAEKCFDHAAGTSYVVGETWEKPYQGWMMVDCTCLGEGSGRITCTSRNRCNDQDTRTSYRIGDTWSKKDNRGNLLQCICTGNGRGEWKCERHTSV
Procedure: (§1) The plates were blocked using Blocking reagent (Roche 1112589). A dilution series of the protein of interest was applied to the coated proteins and wells were subsequently washed using TBS-T (50 mM Tris pH 7.3, 150 mM NaCl and 0.1% Tween20). Bound protein is detected by the FLAG-tag using 1:3000 anti-FLAG-HRP (Sigma A-8592) in PBS-T, or by 1:1000 Ni-NTA-HRP (Qiagen 34530) in PBS-T. The HRP reaction Is performed using the TMB substrate (Biosource 4501103 or Tebu Bio 101TMB100-500), stopped using 10% H2SO4 and absorbance was measured at 450 nm.

[4] = system: human tissue-type plasminogen activator finger EGF (tPA F-EGF) fragment; assay: ELISA, binding of tPA F-EGF to coated (mis)folded proteins; conditions: coated protein, FIG. 7A, I
Sequence of human tissue-type plasminogen activator finger EGF (tPA F-EGF) fragment (P00750 39-120 limits assumed): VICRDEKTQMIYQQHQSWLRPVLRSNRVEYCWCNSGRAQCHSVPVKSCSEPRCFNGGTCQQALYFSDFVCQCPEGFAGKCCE
Procedure: as §1

Balb/c mice [5] = assay: Immunization of mice with β2gpi preparations, titers against native human β2gpi; assay type: in vivo; conditions: four injections of 15 μg antigen
Procedure: Female BalB/C cAnNHSd (Harlan) 7-9 weeks were housed in filtertop cages in groups of 5 mice per group. After approximately one week of adjustment to the environment, pre-immune sera were drawn. On the start of the first week, mice were given either 100 μl plasma (150 μg/ml) β2-Glycoprotein 1,100 μl alkyl-β2-Glycoprotein I (150 μg/ml) or 100 μl of a mixture of 150 μg/ml of 82-Glycoprotein I with 9.33 μM cardiolipin (CL-β2gpi). This latter sample was prepared by pre-incubating 400 μg/ml of 62-GPI with 25 μM of cardiolipin vesicles for at least 10 minutes at RT after mixing the sample by pipetting; afterwards samples were diluted to 150 μg/ml. […]
Sera were analyzed for antibodies against unmodified native (coated) β2-GPI. […] Antibody titers were determined by adding pooled sera of each experimental group (n=5) in three-fold serial dilutions (starting from 1:30, 50 μl/well) to plates coated with native human β2gpi. […] The plates were stained for approximately 5 minutes using 100 μL/well of TMB substrate (Biosource Europe, Nivelles, Belgium), the reaction was stopped with 50 μL/well of 2 M H2SO4 and read at 450 nm on a Spectramax340 microplate reader. The absorbance values were plotted against log dilution. […] For comparison, the dilution that yielded a residual absorbance after background subtraction of 0.1 was arbitrarily taken as the titer of the various sera.

Balb/c mice [6] = assay: Immunization of mice with β2gpi preparations, serum binding to murine β2gpi; assay type: in vivo; conditions: 100-fold diluted sera
Procedure: Female BalB/C cAnNHSd (Harlan) 7-9 weeks were housed in filtertop cages in groups of 5 mice per group. After approximately one week of adjustment to the environment, pre-immune sera were drawn. On the start of the first week, mice were given either 100 μl plasma (150 μg/ml) β2-Glycoprotein 1,100 μl alkyl-β2-Glycoprotein I (150 μg/ml) or 100 μl of a mixture of 150 μg/ml of 82-Glycoprotein I with 9.33 μM cardiolipin (CL-β2gpi). This latter sample was prepared by pre-incubating 400 μg/ml of 62-GPI with 25 μM of cardiolipin vesicles for at least 10 minutes at RT after mixing the sample by pipetting; afterwards samples were diluted to 150 μg/ml. […] All dilutions were made freshly in TBS and kept on ice. Injections were given intravenously in the tail veins of the mice and given on Mondays and Fridays of the first and third week. Blood was drawn three days prior to the experiment, and on Wednesdays of week 2 and 4 by puncture of vena Saphena. Blood was collected in Easycollect tubes, with Z serum clot activator. Sera were prepared by centrifugation in a tabletop centrifuge, with a rotor diameter of 7 cm, at 3800 rpm for 10 minutes (slow start and stop) and stored at −20° C. before analysis.
In this way, it was determined whether immunizations of mice with human β2gpi elicits a humoral auto-immune response against murine β2gpi.

- affinity of fibronectin F4,5 (detection anti-FLAG HRP) [3]: clear difference in binding affinity
- binding of tPA F-EGF [4]: Much lower binding
B1: dOVA: ovalbumin heat-denatured at 85° C., amyloid-like (protein)
chain: GSIGAASMEFCFDVFKELKVHHANENIFYCPIAIMSALAMVYLGAKDSTRTQINKVVRFDKLPGFGDSIEAQCGTSVNVHSSLRDILNQITKPNDVYSFSLASRLYAEERYPILPEYLQCVKELYRGGLEPINFQTAADQARELINSWVESQTNGIIRNVLQPSSVDSQTAMVLVNAIVFKGLWEKAFKDEDTQAMPFRVTEQESKPVQMMYQIGLFRVASMASEKMKILELPFASGTMSMLVLLPDEVSGLEQLESIINFEKLTEWTSSNVMEERKIKVYLPRMKMEEKYNLTSVLMAMGITDVFSSSANLSGISSAESLKISQAVHAAHAEINEAGREVVGSAEAGVDAASVSEEFRADHPFLFCIKHIATNAVLFFGRCVSP
- ThT fluorescence enhancement of native and denatured proteins ([1]; 25 μg ml^−1): filtration through a 0.2 μm filter does not reduce the enhancement of ThT fluorescence
- anti-nOVA antibody titers in pooled sera (Balb/c mice [2]): higher antibody titers

B2: alkyl-β2gpi: reduced and alkylated human β2-glycoprotein I (protein, UniProt P02749 20-345, looked up)
Beta-2-glycoprotein 1: GRTCPKPDDLPFSTVVPLKTFYEPGEEITYSCKPGYVSRGGMRKFICPLTGLWPINTLKCTPRVCPFAGILENGAVRYTTFEYPNTISFSCNTGFYLNGADSAKCTEEGKWSPELPVCAPIICPPPSIPTFATLRVYKPSAGNNSLYRDTAVFECLPQHAMFGNDTITCTTHGNWTKLPECREVKCPFPSRPDNGFVNYPAKPTLYYKDKATFGCHDGYSLDGPEEIECTKLGNWSAMPSCKASCKVPVKKATVVYQGERVKIQEKFKNGMLHGDKVSFFCKNKEKKCSYTEDAQCIDGTIEVPKCFKEHSSLAFWKTDASDVKPC
modifications: reduced and alkylated
notes: reduced and alkylated human β2-glycoprotein I
- Thioflavin T fluorescence of modified β2gpi ([1]; compared with native β2gpi): enhanced Thioflavin T fluorescence
- humoral immune response compared to native β2gpi (Balb/c mice [5]): far higher humoral immune responses
- titers against mouse self-β2gpi (Balb/c mice [6]): higher titers against mouse self-β2gpi
